The record followed here is paper PMC11417369, “DNA sequence and chromatin differentiate sequence-specific transcription factor binding in the human malaria parasite Plasmodium falciparum”.

B1: CACACA_negctrl_site566 (dsDNA)
DNA 1: TATTTTTATACAATTTAACACGGGTTATAAAATGTA
DNA 2: TACATTTTATAACCCGTGTTAAATTGTATAAAAATA
B2: CACACA_negctrl_site313 (dsDNA)
DNA 1: ATAAACAAACATAAATCTGATTTTAATTTTTTTAAG
DNA 2: CTTAAAAAAATTAAAATCAGATTTATGTTTGTTTAT
B3: CACACA_negctrl_site1773 (dsDNA)
DNA 1: TGGTTATTTATCTTTATTATAAATATTTACAAATAA
DNA 2: TTATTTGTAAATATTTATAATAAAGATAAATAACCA
B4: CACACA_negctrl_site1371 (dsDNA)
DNA 1: ATAATTAGTTCAATTTTTTTTTTTTTTTTTTTTTTT
DNA 2: AAAAAAAAAAAAAAAAAAAAAAATTGAACTAATTAT
B5: CACACA_negctrl_site485 (dsDNA)
DNA 1: AAAGTGGCCATATATTTTTTTTTTTTTTTCCTTATT
DNA 2: AATAAGGAAAAAAAAAAAAAAATATATGGCCACTTT
B6: CACACA_negctrl_site1459 (dsDNA)
DNA 1: AAAAATATATATATATTTCTTCTTTGTTAAAATGTA
DNA 2: TACATTTTAACAAAGAAGAAATATATATATATTTTT
B7: CACACA_negctrl_site1399 (dsDNA)
DNA 1: TATTTTAATTTTTTTTTGTTTTTTCTAATACATGTA
DNA 2: TACATGTATTAGAAAAAACAAAAAAAAATTAAAATA
B8: CACACA_negctrl_site76 (dsDNA)
DNA 1: TAAATGTGAAATTTTATATTTTATATAATATACAAT
DNA 2: ATTGTATATTATATAAAATATAAAATTTCACATTTA
B9: CACACA_negctrl_site1094 (dsDNA)
DNA 1: TTTTATTGTTTTTTTTTTTTTTCTTTTTTTTTTTTT
DNA 2: AAAAAAAAAAAAAGAAAAAAAAAAAAAACAATAAAA
B10: CACACA_negctrl_site1635 (dsDNA)
DNA 1: TTTTGATATAAATATTAGATTAATAAATAAAAAAAT
DNA 2: ATTTTTTTATTTATTAATCTAATATTTATATCAAAA
B11: CACACA_negctrl_site1471 (dsDNA)
DNA 1: TGGATTTTTTGATTTTTGTTTTTCTTCTTTCCCCCC
DNA 2: GGGGGGAAAGAAGAAAAACAAAAATCAAAAAATCCA
B12: CACACA_negctrl_site1132 (dsDNA)
DNA 1: ATGTAATCATTTTCGACTTTTTTTTTTTTTTTTTTT
DNA 2: AAAAAAAAAAAAAAAAAAAGTCGAAAATGATTACAT
B13: CACACA_negctrl_site481 (dsDNA)
DNA 1: TGACTTTTTTTTTTTTTTTTTTTTTTTTATCTTTTT
DNA 2: AAAAAGATAAAAAAAAAAAAAAAAAAAAAAAAGTCA
B14: CACACA_negctrl_site1109 (dsDNA)
DNA 1: TATATATCTGTGAAAATACTTAAATTGTTATAAAAA
DNA 2: TTTTTATAACAATTTAAGTATTTTCACAGATATATA
B15: CACACA_negctrl_site1802 (dsDNA)
DNA 1: TTATAATAAATATTTATTATATATAATATATATTAC
DNA 2: GTAATATATATTATATATAATAAATATTTATTATAA
B16: CACACA_negctrl_site1687 (dsDNA)
DNA 1: TATTGATAATTTTATATATACATACATAAATAAATA
DNA 2: TATTTATTTATGTATGTATATATAAAATTATCAATA
B17: CACACA_negctrl_site437 (dsDNA)
DNA 1: ATTATATTAATATATATATATATATATATAATAATA
DNA 2: TATTATTATATATATATATATATATATTAATATAAT
B18: CACACA_negctrl_site828 (dsDNA)
DNA 1: ATATATATATATGTTTATTTATTTGAACGATTGTGG
DNA 2: CCACAATCGTTCAAATAAATAAACATATATATATAT
B19: CACACA_negctrl_site39 (dsDNA)
DNA 1: AATATATCAAAAATTGGATAGTTTCTTATAAAAAAT
DNA 2: ATTTTTTATAAGAAACTATCCAATTTTTGATATATT
B20: CACACA_negctrl_site386 (dsDNA)
DNA 1: TCTTACAAGGAACTAATAAAATTGTAGTTTGTATTT
DNA 2: AAATACAAACTACAATTTTATTAGTTCCTTGTAAGA
B21: CACACA_negctrl_site788 (dsDNA)
DNA 1: GTATATATCTAAAAATATATATATATATATATATAT
DNA 2: ATATATATATATATATATATATTTTTAGATATATAC
B22: CACACA_negctrl_site1085 (dsDNA)
DNA 1: TATATTCAAAAAAATTCATTTCTGATTTTTTTTTTT
DNA 2: AAAAAAAAAAATCAGAAATGAATTTTTTTGAATATA
B23: CACACA_negctrl_site401 (dsDNA)
DNA 1: TGTTAATATATCATTATGTTATAGGTTCAGCTGGGA
DNA 2: TCCCAGCTGAACCTATAACATAATGATATATTAACA
B24: CACACA_negctrl_site1204 (dsDNA)
DNA 1: ATTTTTTTTTTTTTTTTTCATTTTTTTTTTTTTTTT
DNA 2: AAAAAAAAAAAAAAAATGAAAAAAAAAAAAAAAAAT
B25: CACACA_negctrl_site577 (dsDNA)
DNA 1: TCATATTATAAATAAATAAATAAATATATATATATA
DNA 2: TATATATATATATTTATTTATTTATTTATAATATGA
B26: CACACA_negctrl_site1828 (dsDNA)
DNA 1: ATCTCAAATATAATAAATTATTAGGTATATATATAT
DNA 2: ATATATATATACCTAATAATTTATTATATTTGAGAT
B27: CACACA_negctrl_site809 (dsDNA)
DNA 1: AAATAATATTTTTTTTTTTTTTTTTTTTTATGTTAT
DNA 2: ATAACATAAAAAAAAAAAAAAAAAAAAATATTATTT
B28: CACACA_negctrl_site347 (dsDNA)
DNA 1: TTATATATATTTAAAAAAATAACATAAATAAATAAA
DNA 2: TTTATTTATTTATGTTATTTTTTTAAATATATATAA
B29: CACACA_negctrl_site1488 (dsDNA)
DNA 1: AATTCTTTTTATATATTAAATATTATTAATAAGTCA
DNA 2: TGACTTATTAATAATATTTAATATATAAAAAGAATT
B30: CACACA_negctrl_site1766 (dsDNA)
DNA 1: ACACATATATATATATATATATATATATATATATAT
DNA 2: B30 DNA 1 with C2T, C4T, A33G, A35G

Where a chain is given by its changes, count along the chain named.

The target in the series is T1, AP2-HC D1 (Plasmodium falciparum, UniProt Q8IKR9 1316-1374).
T1 sequence: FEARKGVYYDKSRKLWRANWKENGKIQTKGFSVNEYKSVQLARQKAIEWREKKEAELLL
Briefly: gcPBM; about 25 ug protein; PBS, 1% milk, 0.2 mg/ml BSA, salmon testes DNA, 0.03% Triton X-100. The following applies: tags: N-terminal GST (pGEX-4T-1), kept; label: surface-attached array probe.
As for B1, the binding signal is 9.46 ln median PBM intensity, better of two orientations.

For the molecule B2, the binding signal was 9.42 ln median PBM intensity, better of two orientations.

In the case of B3, the binding signal is 9.44 ln median PBM intensity, better of two orientations.

Take B4: the binding signal was 9.38 ln median PBM intensity, better of two orientations.

As for B5, the binding signal was 9.44 ln median PBM intensity, better of two orientations.

On to B6, for which the binding signal is 9.42 ln median PBM intensity, better of two orientations.

In the case of B7, the binding signal was 9.45 ln median PBM intensity, better of two orientations.

With B8, the binding signal is 9.39 ln median PBM intensity, better of two orientations.

As to B9, the binding signal was 9.39 ln median PBM intensity, better of two orientations.

B10: the binding signal is 9.46 ln median PBM intensity, better of two orientations.

With B11, the binding signal is 9.4 ln median PBM intensity, better of two orientations.

Turning to B12, the binding signal is 9.38 ln median PBM intensity, better of two orientations.

For the molecule B13, the binding signal was 9.43 ln median PBM intensity, better of two orientations.

In the case of B14, the binding signal was 9.44 ln median PBM intensity, better of two orientations.

For B15, the binding signal was 9.39 ln median PBM intensity, better of two orientations.

Regarding B16, the binding signal is 9.44 ln median PBM intensity, better of two orientations.

For B17, the binding signal is 9.4 ln median PBM intensity, better of two orientations.

As for B18, the binding signal was 9.44 ln median PBM intensity, better of two orientations.

Take B19: the binding signal was 9.45 ln median PBM intensity, better of two orientations.

With B20, the binding signal is 9.42 ln median PBM intensity, better of two orientations.

In the case of B21, the binding signal is 9.43 ln median PBM intensity, better of two orientations.

Turning to B22, the binding signal was 9.44 ln median PBM intensity, better of two orientations.

On to B23, for which the binding signal is 9.41 ln median PBM intensity, better of two orientations.

Consider B24, for which the binding signal is 9.43 ln median PBM intensity, better of two orientations.

Consider B25, for which the binding signal is 9.41 ln median PBM intensity, better of two orientations.

In the case of B26, the binding signal is 9.46 ln median PBM intensity, better of two orientations.

In the case of B27, the binding signal is 9.46 ln median PBM intensity, better of two orientations.

Consider B28, for which the binding signal is 9.47 ln median PBM intensity, better of two orientations.

For the molecule B29, the binding signal is 9.39 ln median PBM intensity, better of two orientations.

In the case of B30, the binding signal is 9.45 ln median PBM intensity, better of two orientations.
